Test results: PMC3229559

Biological target: PKC-α (UniProt P20444)
Experiment: biotin-peptide pull-down from heart extract
Conditions: reference: non-phosphorylated peptide; sites S179

binding against the reference: weaker
Substance: syndecan-4 cytoplasmic part, 171-198 (from UniProt O35988) pS179 peptide
